Experimental data reported in publication doi:10.1101/2022.01.24.477625 (bioRxiv, 2022).

Target: SARS-CoV-1 spike protein (FL-GCN4-Avi-His, biotinylated) (SARS-CoV-1 (SARS-CoV), strain , UniProt P59594, stabilised, biotin on the Avi tag)
Experiment: BLI

B1: CV27 IgG (antibody, V domains shown)
VH: QVQLVESGGGVVQPGRSLRLSCAASGFTFSSYAMHWVRQAPGKGLEWVALISYDGSNKYYADSVKGRFTISRDNSKNTLYLQMNSLRAEDTAVYYCARSFGGSYYYGMDVWGQGTTVTVSS
VL: QSALTQPASVSGSPGQSITISCTGTSSDVGGYNYVSWYQQHPGKAPKLMIYDVSNRPSGVSNRFSGSKSGNTASLTISGLQAEDEADYYCSSYTSSSTPYVFGTGTKVTVL
Q: Does B1 bind?
A: binds
